Values of other authors in paper PMC3100173.

Target: OmpF (Escherichia coli) (UniProt P02931)
Sequence of UniProt P02931 (P02931 23-362): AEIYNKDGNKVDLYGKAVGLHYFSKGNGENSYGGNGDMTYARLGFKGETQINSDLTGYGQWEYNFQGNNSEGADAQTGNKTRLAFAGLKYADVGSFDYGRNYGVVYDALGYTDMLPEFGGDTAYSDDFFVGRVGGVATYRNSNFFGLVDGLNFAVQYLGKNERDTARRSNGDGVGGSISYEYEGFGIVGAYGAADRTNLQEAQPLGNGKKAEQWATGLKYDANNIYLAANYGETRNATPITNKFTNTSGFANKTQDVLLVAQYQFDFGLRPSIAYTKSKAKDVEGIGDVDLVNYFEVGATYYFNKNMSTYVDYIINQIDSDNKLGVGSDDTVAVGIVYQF

Colicin N (from UniProt P08083)
Kd: 200 µM
